Measurements from patent publication US5786145A, “Oligonucleotide competitors for binding of HIV RRE to REV protein and assays for screening inhibitors of this binding” (Medical Research Council, priority 1995, dated 1998).
Numbering of substitutions follows the chain as printed. Entries after “also recorded” stand apart in the source; their conditions may differ. Like-named read-outs stand apart in the source and are kept apart here.

Key:
rev protein [1] = assay: Saturation filter binding of rev to labelled RNA transcripts; design: species or system HIV-1; conditions: for rev binding, result in words: saturation filter binding, 0 to 10 nM rev
Description: Rev protein was expressed and purified as described (33) or further purified by chromatography on Heparin-Sepharose. Rev was applied to Heparin columns in a buffer containing 200 mM NaCl/50mM Tris-HCl pH8.0/1 mM DTT/0.1 mM EDTA 0.1% Triton X-100 and eluted in buffer containing 2M NaCl. After gel filtration on Superose 6 (prep grade) columns equilibrated with 200 mM NaCl/50 mM Tris-HCl pH8.0/1 mM DTT/0.1 mM EDTA, the rev protein appeared homogeneous on SDS-polyacrylamide gels and free of RNA contaminants. Rev concentrations were determined by amino acid analysis of the purified protein.
DNA inserts containing RRE-related sequences were cloned between the EcoRI (5') and HindIII (3') sites of pGEM 1, either by cloning PCR products or by cloning annealed pairs of synthetic oligonucleotides. RNA transcripts for binding experiments were prepared by transcription of HindIII cut plasmids using T7 RNA polymerase and purified by gel electrophoresis. These transcripts carry a 5' extension of 15 nucleotides contributed by the vector and an extra A residue at the 3' end from the HindIII site, as described above.
For filter binding assays, each reaction mixture contained 20 pg of uniformly labelled RNA probe (approximately 500 cpm/pg RNA), […] sonicated salmon sperm DNA, […] yeast tRNA, 40 units RNasin (Promega) in […] TK buffer (43 mM Tris-HCl pH8.0, 50 mM KCl). Incubation was at 4° C. for 15 minutes in the presence of 0 to 10 nM purified rev protein. To measure binding, each reaction mixture was applied under gentle vacuum to a 0.45 um Millipore filter which had been pre-wetted with TK buffer. The filters were washed with […] TK buffer, dried, and radioactivity counted by liquid scintillation.
Filter binding assays contained 20 pg uniformly labelled RNA probe (500 dpm per pg RNA), 1 μg salmon sperm DNA, 0.45 μg yeast tRNA and 40 units RNasin (Promega) in 500 μl buffer containing 43 mM Tris-HCl pH 8.0, 50 mM KCl. Mutations in the purine-rich "bubble" sequence (numbered as shown in FIG. 2) were introduced into the R33 stem-loop structure (FIG. 3d) by site-directed mutagenesis.

rev protein [2] = assay: Competition filter binding against labelled RRE RNA (FIG. 11); design: species or system HIV-1; conditions: 17 nM rev, 0.5 pM labelled RRE RNA; read-out: D1/2, competitor concentration reducing rev binding to labelled RRE RNA by 50%
Description: Unlabelled RRE RNA was an effective competitor and reduced rev binding to the labelled RRE RNA by 50% of the initial value with a D1/2 =2 nM. The short R33 transcript was also an effective competitor and reduced rev binding with D1/2 =8 nM. The mutations in the "bubble" either reduce or abolish specific rev binding.
Filter binding reactions contained 17 nM rev, 0.5 pM labelled RRE RNA and between 0-100 nM unlabelled competitor RNA. Empty squares, RRE RNA competitor; filled circles, R33 RNA competitor; filled triangles, R34 RNA competitor; empty triangles, R35 RNA competitor.

HIV-1 Rev [3] = target: T1, HIV-1 Rev (Human immunodeficiency virus 1, UniProt P04618 P04618:1-116); assay: filter; conditions: tags: none stated, heparin-Sepharose and Superose 6 purified, chain copies: oligomer (tetramer likely; about 4 per RBC6, 6-8 per full-length RRE at 50 mM KCl) stated, label: 32P uniform
HIV-1 Rev [4] = target: T1, HIV-1 Rev; assay: filter; bubble not formed; conditions: tags: none stated; heparin-Sepharose and Superose 6 purified; chain copies: oligomer (tetramer likely; about 4 per RBC6, 6-8 per full-length RRE at 50 mM KCl) stated; label: 32P uniform
HIV-1 Rev [5] = target: T1, HIV-1 Rev; assay: filter; 50 mM KCl, 4 C; 21% bound at 10 nM rev; conditions: tags: none stated; heparin-Sepharose and Superose 6 purified; chain copies: oligomer (tetramer likely; about 4 per RBC6, 6-8 per full-length RRE at 50 mM KCl) stated; label: 32P uniform
HIV-1 Rev [6] = target: T1, HIV-1 Rev; assay: filter; 50 mM KCl, 4 C; 15% bound at 10 nM rev; conditions: tags: none stated; heparin-Sepharose and Superose 6 purified; chain copies: oligomer (tetramer likely; about 4 per RBC6, 6-8 per full-length RRE at 50 mM KCl) stated; label: 32P uniform
HIV-1 Rev [7] = target: T1, HIV-1 Rev; assay: filter; 50 mM KCl, 4 C; 40% bound at 10 nM rev; conditions: tags: none stated, heparin-Sepharose and Superose 6 purified, chain copies: oligomer (tetramer likely; about 4 per RBC6, 6-8 per full-length RRE at 50 mM KCl) stated, label: 32P uniform
HIV-1 Rev [8] = target: T1, HIV-1 Rev; assay: filter; 50 mM KCl, 4 C; 18% bound at 10 nM rev; conditions: tags: none stated; heparin-Sepharose and Superose 6 purified; chain copies: oligomer (tetramer likely; about 4 per RBC6, 6-8 per full-length RRE at 50 mM KCl) stated; label: 32P uniform
HIV-1 Rev [9] = target: T1, HIV-1 Rev; assay: filter; 50 mM KCl, 4 C; 17% bound at 10 nM rev; conditions: tags: none stated; heparin-Sepharose and Superose 6 purified; chain copies: oligomer (tetramer likely; about 4 per RBC6, 6-8 per full-length RRE at 50 mM KCl) stated; label: 32P uniform
HIV-1 Rev [10] = target: T1, HIV-1 Rev; assay: filter; 50 mM KCl, 4 C; 20% bound at 10 nM rev; conditions: tags: none stated; heparin-Sepharose and Superose 6 purified; chain copies: oligomer (tetramer likely; about 4 per RBC6, 6-8 per full-length RRE at 50 mM KCl) stated; label: 32P uniform
HIV-1 Rev [11] = target: T1, HIV-1 Rev; assay: competition; D1/2 vs labelled RRE RNA, 17 nM rev; conditions: tags: none stated, heparin-Sepharose and Superose 6 purified, chain copies: oligomer (tetramer likely; about 4 per RBC6, 6-8 per full-length RRE at 50 mM KCl) stated, label: 32P uniform
HIV-1 Rev [12] = target: T1, HIV-1 Rev; assay: filter; 50 mM KCl, 4 C; 35% bound at 10 nM rev; conditions: tags: none stated; heparin-Sepharose and Superose 6 purified; chain copies: oligomer (tetramer likely; about 4 per RBC6, 6-8 per full-length RRE at 50 mM KCl) stated; label: 32P uniform; stem-loop with altered bubble
HIV-1 Rev [13] = target: T1, HIV-1 Rev; assay: filter; shortest T7 transcript with full affinity; conditions: tags: none stated; heparin-Sepharose and Superose 6 purified; chain copies: oligomer (tetramer likely; about 4 per RBC6, 6-8 per full-length RRE at 50 mM KCl) stated; label: 32P uniform; stem-loop with purine-rich bubble
HIV-1 Rev [14] = target: T1, HIV-1 Rev; assay: filter; normal rev binding; conditions: tags: none stated; heparin-Sepharose and Superose 6 purified; chain copies: oligomer (tetramer likely; about 4 per RBC6, 6-8 per full-length RRE at 50 mM KCl) stated; label: 32P uniform; stem-loop with purine-rich bubble
HIV-1 Rev [15] = target: T1, HIV-1 Rev; assay: filter; same affinity as full-length RRE; conditions: tags: none stated; heparin-Sepharose and Superose 6 purified; chain copies: oligomer (tetramer likely; about 4 per RBC6, 6-8 per full-length RRE at 50 mM KCl) stated; label: 32P uniform; stem-loop with purine-rich bubble
HIV-1 Rev [16] = target: T1, HIV-1 Rev; assay: competition; competes with same affinity as RBC6; conditions: tags: none stated; heparin-Sepharose and Superose 6 purified; chain copies: oligomer (tetramer likely; about 4 per RBC6, 6-8 per full-length RRE at 50 mM KCl) stated; RNA three-way junction stabilising bubble (all strands RNA)
[17] = Table I, filter binding, 20 pg labelled RNA probe, 50 mM KCl, read-out: Kd
[18] = stem-loop with purine-rich bubble on 9-bp stem

With “R33: stem-loop of residues 33 to 63, A56 deleted, inserted on top of a stem containing 9 base pairs; wild-type bubble (GGGAGACCGGAAUUCUGGGCGCAGUGUCAUUGACGCUGCGGUACAGAAUUCCGGCA; chemistry not given here)” the “% RNA bound (10 nM rev)” value (rev protein [1]; Table I, 50 mM KCl) was 40%, the Kd (rev protein [1]; [17]) was 3 nM and the “rev binding, result in words” value (rev protein [1]) was “Normal rev binding”. For the same molecule, the IC50 (rev protein [2]) was 8 nM.

With “R35 (GGGAGACCGGAAUUCUGGCGCAGUGUCAUUGACGCUGCGGUACAGAAUUCCGGCA; chemistry not given here)” the “% RNA bound (10 nM rev)” value (rev protein [1]; Table I, 50 mM KCl) was 35%, the Kd (rev protein [1]; [17]) was 4 nM and the Kd (rev protein [1]; saturation filter binding of T7 transcripts, read-out: Kd for rev binding) was 4 nM. The “rev binding, result in words” value (rev protein [1]) was “reduced rev binding slightly” and the IC50 (rev protein [2]) was 16 nM.

In the case of “R34 (GGGAGACCGGAAUUCUGCGCAGUGUCAUUGACGCUGCGGUACAGAAUUCCGGC; chemistry not given here)”, the “% RNA bound (10 nM rev)” value (rev protein [1]; Table I, 50 mM KCl) is reported as 3%, the “rev binding, result in words” value (rev protein [1]) is reported as “abolished specific rev binding; also recorded: does not bind rev with measurable affinity” and the IC50 (rev protein [2]) is reported as greater than 250 nM.

Molecule GGGAGACCGGAAUUCUGGGCGCUUCGGCGGUACAGA (ssRNA) [R38 (upper stem-loop replaced by CUUCGG)] has a Kd (HIV-1 Rev [3]; hairpin with purine-rich bubble) of 1.73 nM.

B1: RRE fragment 26-72 (ssRNA)
RNA: GGGAGACCGGAAUUCAGCACUAGGGCGCAGUGUCAUUGACGCUGAGGGUACAGGCCAGACAAUUAUA
B1: no binding (HIV-1 Rev [4]).

B2: R55 (ssRNA)
RNA: GGGAGACCGGAAUUCUAGGCGCAGUGUCAUUGACGCUGCGGUAUAGAAUUCCGGCA
modifications: [-]
For B2, the Kd (HIV-1 Rev [5]) was 4 nM.

B3: R39 (ssRNA)
RNA: B2 RNA with U16A, A17G, U44C, A45U
modifications: [-]
With B3 the Kd (HIV-1 Rev [6]) was 8 nM.

B4: R57 (ssRNA)
RNA: B2 RNA with A17G, G21A, C39U, U44C
modifications: [-]
Molecule B4 has a Kd (HIV-1 Rev [7]) of 3 nM.

B5: R52 (ssRNA)
RNA: B2 RNA with A17G, U42C, U44C
modifications: [-]
In the case of B5, the Kd (HIV-1 Rev [8]) is reported as 5 nM.

B6: R54 (ssRNA)
RNA: B2 RNA with U16C, A17G, U44C, A45G
modifications: [-]
B6 was tested, and the Kd (HIV-1 Rev [9]) was 6 nM.

B7: R50 (ssRNA)
RNA: B2 RNA with A17G, G19A, U44C
modifications: [-]
Molecule B7 has a Kd (HIV-1 Rev [10]) of 5 nM.

B8: R42 (ssRNA)
RNA: B2 RNA with A17G, G21C, C39G, U44C
modifications: [none]
Work on B8 yielded a Kd (HIV-1 Rev [8]) of 8 nM.

B9: R33 (ssRNA)
RNA: B2 RNA with A17G, U44C
Molecule B9 has a Kd (HIV-1 Rev [7]; [18]) of 3 nM and an IC50 (HIV-1 Rev [11]; [18]) of 8 nM.

B10: R35 (dG35) (ssRNA)
RNA: GGGAGACCGGAAUUCUGGCGCAGUGUCAUUGACGCUGCGGUACAGAAUUCCGGCA
With B10 the Kd (HIV-1 Rev [12]) was 4 nM and the IC50 (HIV-1 Rev [11]; stem-loop with altered bubble) was 16 nM.

GGGAGACCGGAAUUCUGGGCGCAGUGUCAUUGACGCUGACGGUACAGGCA (ssRNA) [R19 (RRE 33-66)] was tested, and the Kd (HIV-1 Rev [13]) was 1.73 nM.

GGGAGACCGGAAUUCUGGGCGCAGUGUCAAUGACGCUGACGGUACAGGCA (ssRNA) [R29 (apex loop antisense)]: binds (HIV-1 Rev [14]).

For GGGAGACCGGAAUUCUGGGCGCAGUGUCAUUGACGCUGCGGUACAGGCA (ssRNA) [R22 (A56 deleted)], the Kd (HIV-1 Rev [3]; stem-loop with purine-rich bubble) was 1.73 nM.

GGGAGACCGGAAUUCUGGGCGCAGCGUCAUUGACACUGCGGUACAGGCA (ssRNA) [R30 (upper stem antisense)]: binds (HIV-1 Rev [14]).

B11: RRE fragment 26-92 (ssRNA)
RNA: GGGAGACCGGAAUUCAGCACUAUGGGCGCAGUGUCAUUGACGCUGACGGUACAGGCCAGACAAUUAUUGUCUGGUAUAGUGCA
B11: binds (HIV-1 Rev [15]).

B12: TWJ-U (structured_DNA)
DNA 1: GCACUAUGGGCGCAGC
DNA 2: GCUGCGGUACAGGCCAGA
DNA 3: UCUGGUAUAGUGC
B12: binds (HIV-1 Rev [16]).

B13: RRE fragment 1-96 (ssRNA)
RNA: GGGAGACCGGAAUUCCCUUGGGUUCUUGGGAGCAGCAGGAAGCACUAUGGGCGCAGUGUCAUUGACGCUGACGGUACAGGCCAGACAAUUAUUGUCUGGUAUAGUGCAACA
B13: binds (HIV-1 Rev [15]).
